The values below come from PMC9488787.

Where two headings read alike, the source gives them in different places.

Take “Hrq1: Hrq1-7KR (K164R, K219R, K221R, K366R, K839R, K872R, K938R)”: the degradation_or_half_life result by setting is: (ubiquitination at K164) “decreases”; (ubiquitination at K219) “decreases”; (ubiquitination at K221) “decreases”; (ubiquitination at K366) “decreases”; (ubiquitination at K839) “decreases”; (ubiquitination at K872) “decreases”. For the same substance, the degradation_or_half_life result (ubiquitination at K938) is recorded as “decreases”. The expression_or_secretion result is, setting by setting: (ubiquitination at K164) “no change”; (ubiquitination at K219) “no change”; (ubiquitination at K221) “no change”; (ubiquitination at K366) “no change”; (ubiquitination at K839) “no change”; (ubiquitination at K872) “no change”. For the same substance, the expression_or_secretion result (ubiquitination at K938) is “no change”.
